Each block holds one substance with its values, some of them ahead of it.
Legend:
[1] = target: His6-tagged K2467A mutant central Reelin fragment (Reelin repeats 3–6), Fc removed (UniProt Q60841); experiment: SEC; Superose 6 Increase 10/300 GL, A280 traces of heterodimer, FLAG-WT homodimer and His6-K2467A homodimer
[2] = target: FLAG-tagged wild-type central Reelin fragment (Reelin repeats 3–6), Fc removed (UniProt Q60841); experiment: as above
[3] = target: Fc-fused Reelin heterodimer (FLAG-WT / His6-K2467A central fragment, Fc retained) (UniProt Q60841); experiment: BLI; BLItz; Fc-fused heterodimer on a Protein A biosensor; dilution series (11 concentrations) of ecto-VLDLR; 20 mM Hepes pH 7.4, 150 mM NaCl, 1 mM CaCl2, 0.2% Tween20, 0.1% BSA; association 45 s, dissociation 60 s without CaCl2 and with 1 mM EDTA; maximum responses fitted to one site specific binding; triplicate

stoichiometry N [1]: 2
Substance: His6-tagged K2467A mutant central Reelin fragment (Reelin repeats 3–6), Fc removed (from UniProt Q60841 27-3461) (domain or fragment)

stoichiometry N [2]: 2
Substance: FLAG-tagged wild-type central Reelin fragment (Reelin repeats 3–6), Fc removed (from UniProt Q60841 27-3461) (domain or fragment)

Kd [3]: 129 nM
Substance: purified extracellular domain of VLDLR (very-low density lipoprotein receptor) (from UniProt P98155 28-797)

Source: publication PMC7701066
